Experimental data published in US6838446B1, “Vector for expression of GPI-enzyme hybrid” (AstraZeneca AB, priority 1999, dated 2005).

Assays:
[1] = bacterially expressed standard (Sigma C4053); cited from earlier work
[2] = HPLC based CPG2 enzyme activity assay with CPG2 capture ELISA, supernatants of transiently transfected COS 7 cells; format: biochemical; conditions: for specific activity of unpurified protein in crude supernatant, expressed in presence of tunicamycin / specific activity of unpurified protein in crude supernatant: COS 7 transient plasmid expression; for specific activity of unpurified protein in crude supernatant, expressed in presence of tunicamycin: 10 μg/ml tunicamycin (unglycosylated protein); for specific activity of unpurified protein in crude supernatant: tunicamycin absent, for CPG2 the combined activity of three protein forms (glycosylated and unglycosylated)
Method: Transient tranfection of COS 7 cells can be achieved using a LIPOFECTIN™ based procedure. LIPOFECTIN™ Reagent (Gibco BRL Cat. No. 18292-011) is a 1:1 (w/w) liposome formulation of the cationic lipid DOTMA and DOPE in membrane filtered water. It binds spontaneously with DNA to form a lipid-DNA complex (Felgner et al., Proc. Natl. Acad Sci. USA (1987) 84, 7431. COS 7 cells are seeded into a 6 well plate a 2×10^5 cell/2 ml/well, from a subconfluent culture and incubated overnight at 37°, 5% CO2. A LIPOFECTIN™/serum free medium mix is made up containing 120 μl LIPOFECTIN™ plus 480 μl serum free medium and incubated at room temperature for 30 minutes. A DNA/serum free medium mix is prepared by mixing 12 μg DNA with 600 μl serum free medium. The LIPOFECTIN™/serum free medium mix is added to the DNA/serum free medium mix and left at room temperature for 15 mins. The cells are washed once with 2 ml serum free-medium, then 800 μl serum free media added plus 200 μl LIPOFECTIN™/DNA mix/well and incubated for 5 hours at 37°, 5% CO2. The LIPOFECIN™/DNA mix is removed from the cells and normal growth media added after which the cells are incubated for 48-72 hours at 37°, 5% CO2 when the supernatants are harvested.
COS 7 cells can also be transiently transfected in the presence of the glycosylation inhibitor tunicamycin. The transfection procedure is repeated as above, but after incubating for 5 hours at 37°, 5% CO2, 10 μg/ml tunicamycin (Sigma T7765) is added into the normal growth media.
(§1) For the CPG2 capture ELISA, 96 well plates precoated with goat anti-mouse IgG are used (PIERCE REACII-BIND™ 15134 plates). A second layer of mouse monoclonal anti-CPG2 diluted 1:800 in PBS/0.05% TWEEN™/BSA is added by overnight incubation at 4°. In between each binding step the plate is washed 3 times with PBS/0.05% TWEEN™. 100 μl test sample is added per well and doubling dilutions in PBS/0.05%TWEEN™ carried out across the plate. A fourth layer of rabbit polyclonal anti-CPG2 diluted 1:2500 in PBS/0.05% TWEEN™/2% BSA is added followed by a final layer of goat anit-rabbit IgG Horse Radish Peroxidase Labelled Antibody (DAKO PO448) diluted 1:1000 in PBS/0.05% TWEEN™/2% BSA. To detect binding, 100 μl per well of developing solution is added [one capsule of phosphate-citrate buffer (Sigma P4922) dissolved in 100 ml water to which is added one 30 mg tablet o-phenyldiamine dihydrochloride (Sigma P4812)] and the reaction stopped after 5 mins by adding 75 μl 2M H2SO4, and the absorbance read at 490 nm.
To measure CPG2 enzyme activity in cell supernatant samples at HPLC based CPG2 enzyme assay can be used. 125 βl cell supernatant is pulsed in a micro-centrifuge to remove cell debris and 375 μl fresh reaction buffer (PBS/0.2 mM ZnCl2) added. Upon addition of 100 μM methotrexate, a substrate for the CPG2 enzyme, the reaction is incubated at 37° for 1 hour. The reaction is stopped by the addition of 500 μl methanol/0.2% Trifluoroacetio acid. The 1 ml sample is placed in a capped vial and assayed using HPLC. An isocratic separation with a mobile phase containing: 60% Methanol/40%, 60 mM Ammonium formate/0.1% Trifluoroacetic acid is used with an S5SC×column (Hichrom). 60 μl of sample is injected and the absorbance at 300 nm measured over a total run time of 8 mins/sample giving expected retention times for methotrexate and metabolite of 3.9 and 5.6 respectively.
The two plasmids pNG3/RC/CPG2 and pNG3/RC/CPG2(Q3) (which encoded the glycosylatable and Q3 variant secretory forms of the CPG2 protein respectively) were transfected into COS-7 cells using the LIPOFECTIN™ transfection procedure. To confirm that the mutagenesis of CPG2 to CPG2(Q3) had removed all potential glycosylation sites, the two proteins were also expressed in the presence of the glycosylation inhibitor, tunicamycin. After 72 h of expression the cell supernatants were harvested for analysis. […]

[3] = HPLC based CPG2 enzyme activity assay with CPG2 capture ELISA, supernatants of adenovirally infected CHO K1 cells; format: biochemical; conditions: RAd infected CHO K1 cells, supernatant 48 hours after infection
Method: as §1
To measure CPG2 enzyme activity in cell supernatant samples at HPLC based CPG2 enzyme assay can be used. […] 60 μl of sample is injected and the absorbance at 300 nm measured over a total run time of 8 mins/sample giving expected retention times for methotrexate and metabolite of 3.9 and 5.6 respectively. […]

Molecule	specific activity of purified bacterial CPG2 [1]	specific activity of unpurified protein in crude supernatant, expressed in presence of tunicamycin [2]	specific activity of unpurified protein in crude supernatant [2]	specific activity of virally expressed secretable enzyme [3]	reduction of enzyme activity by mutagenesis of CPG2 to CPG2(Q3) ([2]; as printed: compared with bacterial expressed enzyme)	specific activity, fold lower than wild type bacterial enzyme ([2]; unpurified protein, COS 7 supernatant)
bacterial CPG2: purified, bacterially expressed CPG2 used as a standard (Sigma C4053) (protein, UniProt P06621 23-415, looked up) Carboxypeptidase G2: ALAQKRDNVLFQAATDEQPAVIKTLEKLVNIETGTGDAEGIAAAGNFLEAELKNLGFTVTRSKSAGLVVGDNIVGKIKGRGGKNLLLMSHMDTVYLKGILAKAPFRVEGDKAYGPGIADDKGGNAVILHTLKLLKEYGVRDYGTITVLFNTDEEKGSFGSRDLIQEEAKLADYVLSFEPTSAGDEKLSLGTSGIAYVQVNITGKASHAGAAPELGVNALVEASDLVLRTMNIDDKAKNLRFNWTIAKAGNVSNIIPASATLNADVRYARNEDFDAAMKTLEERAQQKKLPEADVKVIVTRGRPAFNAGEGGKKLVDKAVAYYKEAGGTLGVEERTGGGTDAAYAALSGKPVIESLGLPGFGYHSDKAEYVDISAIPRRLYMAARLIMDLGAGK	500 units/mg					
CPG2: carboxypeptidase G2 with kappa light chain secretory leader, unaltered glycosylation sites, expressed from mammalian cells (pNG3/RC/CPG2) (protein, UniProt P06621 23-415, looked up, kappa light chain secretory leader) Carboxypeptidase G2: ALAQKRDNVLFQAATDEQPAVIKTLEKLVNIETGTGDAEGIAAAGNFLEAELKNLGFTVTRSKSAGLVVGDNIVGKIKGRGGKNLLLMSHMDTVYLKGILAKAPFRVEGDKAYGPGIADDKGGNAVILHTLKLLKEYGVRDYGTITVLFNTDEEKGSFGSRDLIQEEAKLADYVLSFEPTSAGDEKLSLGTSGIAYVQVNITGKASHAGAAPELGVNALVEASDLVLRTMNIDDKAKNLRFNWTIAKAGNVSNIIPASATLNADVRYARNEDFDAAMKTLEERAQQKKLPEADVKVIVTRGRPAFNAGEGGKKLVDKAVAYYKEAGGTLGVEERTGGGTDAAYAALSGKPVIESLGLPGFGYHSDKAEYVDISAIPRRLYMAARLIMDLGAGK		165-210 units/mg	61-87 units/mg	71 units/mg		
CPG2(Q3): CPG2 with asparagine at positions 222, 264 & 272 mutated to glutamine, secreted form (protein, UniProt P06621 23-415, looked up, variant N222Q N264Q N272Q, secreted form, CPG2 with asparagine at positions 222, 264 & 272 mutated to glutamine, secreted form) Carboxypeptidase G2: ALAQKRDNVLFQAATDEQPAVIKTLEKLVNIETGTGDAEGIAAAGNFLEAELKNLGFTVTRSKSAGLVVGDNIVGKIKGRGGKNLLLMSHMDTVYLKGILAKAPFRVEGDKAYGPGIADDKGGNAVILHTLKLLKEYGVRDYGTITVLFNTDEEKGSFGSRDLIQEEAKLADYVLSFEPTSAGDEKLSLGTSGIAYVQVQITGKASHAGAAPELGVNALVEASDLVLRTMNIDDKAKNLRFQWTIAKAGQVSNIIPASATLNADVRYARNEDFDAAMKTLEERAQQKKLPEADVKVIVTRGRPAFNAGEGGKKLVDKAVAYYKEAGGTLGVEERTGGGTDAAYAALSGKPVIESLGLPGFGYHSDKAEYVDISAIPRRLYMAARLIMDLGAGK		90-124 units/mg	71-120 units/mg	180 units/mg	2 fold	approximately 5 fold
